# Changes are numbered by the printed parent chain. Like-named read-outs stand apart in the source and are kept apart here.
# T1: Kif7-DM(E502A)-GFP (human, UniProt Q2M1P5 1-543, E502A)
# T1 sequence (looked up): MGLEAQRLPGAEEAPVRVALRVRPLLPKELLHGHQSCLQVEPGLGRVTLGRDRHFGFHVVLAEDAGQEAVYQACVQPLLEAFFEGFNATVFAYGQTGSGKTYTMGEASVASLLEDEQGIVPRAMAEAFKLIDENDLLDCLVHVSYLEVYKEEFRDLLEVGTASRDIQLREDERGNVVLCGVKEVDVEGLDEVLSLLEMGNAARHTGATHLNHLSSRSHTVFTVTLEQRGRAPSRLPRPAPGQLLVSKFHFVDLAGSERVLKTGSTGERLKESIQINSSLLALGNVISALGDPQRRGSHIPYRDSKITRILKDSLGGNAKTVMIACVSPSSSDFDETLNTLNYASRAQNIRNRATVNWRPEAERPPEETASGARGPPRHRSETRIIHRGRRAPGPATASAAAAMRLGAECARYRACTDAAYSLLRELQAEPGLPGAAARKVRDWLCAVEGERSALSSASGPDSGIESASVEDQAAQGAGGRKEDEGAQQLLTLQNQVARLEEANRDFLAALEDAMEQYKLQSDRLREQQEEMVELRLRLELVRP
# T2: Kif7-DM (1-543aa) (human, UniProt Q2M1P5 1-543)
# T2 sequence (looked up): T1 sequence (looked up) with A502E
# B1: Gli2-ZF-SNAP (domain or fragment, human, UniProt P10070 418-604, looked up)
# chain: KEDLDRDDCKQEAEVVIYETNCHWEDCTKEYDTQEQLVHHINNEHIHGEKKEFVCRWQACTREQKPFKAQYMLVVHMRRHTGEKPHKCTFEGCSKAYSRLENLKTHLRSHTGEKPYVCEHEGCNKAFSNASDRAKHQNRTHSNEKPYICKIPGCTKRYTDPSSLRKHVKTVHGPDAHVTKKQRNDVH
# modifications: Alexa-647 label (TIRFM assays)
# B2: Kif7-DM-GFP (1-543aa) (domain or fragment, human, UniProt Q2M1P5 1-543, looked up)
# chain: T1 sequence (looked up) with A502E
# What was measured:
# [1] = molecular target: T1, Kif7-DM(E502A)-GFP; test: TIRF microscopy, recruitment to immobilised microtubules
# [2] = molecular target: B2; test: as above
# [3] = molecular target: T2, Kif7-DM (1-543aa); test: BLI
# [4] = molecular target: GDP-taxol stabilized microtubules (bovine tubulin) (bovine) (UniProt Q6B856); test: co-sedimentation
# [5] = molecular target: the molecule itself; test: single molecule fluorescence intensity and step-photobleaching analysis
# [6] = molecular target: GDP-taxol stabilized microtubules (bovine tubulin) (bovine) (UniProt Q6B856); test: co-sedimentation; remark: listed apart in the source
binding result [1],fold enrichment of Gli2-ZF on microtubules over no kinesin control [2],Kd [3],Kd [4],Kd [6],Binder,stoichiometry N [5]
binds,~9 fold,99 ± 23 nM,–,–,B1,–
–,–,–,540 nM,4230 nM,B2,2

# Reference: article PMC10016618 (Nature cell biology, 2021)
